For assay [1], the target named is HLA-A*01:01. Put plainly: IEDB peptide-MHC binding, purified MHC/competitive/radioactivity; ≥ and ≤ were set here for values at or beyond the usual limits of such assays. The note with it: source organism: Homo sapiens.
Assay [2] has as its target HLA-A*24:02. The description is as above. The note with it: source organism: Homo sapiens.
Assay [3] addresses HLA-A*03:01. Described as above. The note with it: source organism: Homo sapiens.
In assay [4] the target is HLA-A*11:01. The assay is described as above. The note with it: source organism: Homo sapiens.
Assay [5] deals with HLA-A*01:01. Put plainly: IEDB peptide-MHC binding, purified MHC/competitive/radioactivity; filed as Kd, often an IC50 or EC50 that approximates it; ≥ and ≤ were set here for values at or beyond the usual limits of such assays.

Data on 13 sequences can be found in the Immune Epitope Database (IEDB).

Usually IC50 stands for the concentration at which inhibition is half-maximal. As usually defined, the Kd is a measure of binding affinity in units of concentration.

On to YLDDPDLKY, for which the half-maximal inhibitory concentration (IC50) in assay [1] is 2.8 nM. As to KYPENFFLL, the half-maximal inhibitory concentration (IC50) in assay [2] worked out at 4.8 nM.

Regarding YYEEQHPEL, the IC50 in assay [2] came to 100 nM.

Regarding AYVHMVTHF, in assay [2], the IC50 was determined as 23 nM.

For the sequence ATDFKFAMY, the IC50 in assay [1] was determined as 0.74 nM. Turning to DSDGSFFLY, the IC50 in assay [1] was 0.6 nM.

Take SVLNLVIVK: the values for the IC50 in assay [3] and in assay [4] were 128 nM and 6.94 nM, respectively. For the sequence STDHIPILY, the half-inhibitory concentration (IC50) in assay [1] worked out at 1.7 nM. In the case of RTQNVLGEK, the IC50 worked out at 155 nM in assay [3] and 31 nM in assay [4].

Consider KVVNPLFEK, for which the IC50 was 85 nM in assay [3] and 8.1 nM in assay [4]. For the sequence NRKLLDIA, in assay [5] (source organism: Bos taurus), the dissociation constant (Kd) was not below 50000 nM. As to ASFDKAKLK, the IC50 in assay [3] was determined as 42 nM; in assay [4], 15.1 nM. On to DAKIRIFDL, for which the Kd in assay [5] (source organism: Homo sapiens) was not below 50000 nM.
